Experiment: yeast display, Sf9 membrane polyspecificity reagent, FACS + sequencing; frameworks hold sequencing errors
How it was run: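 Synthetic nanobody libraries on Saccharomyces cerevisiae BJ5465 were galactose-induced for 36–48 hours, stained 1 hour at 4 °C with 10% biotinylated, detergent-solubilized Sf9 membrane reagent and enriched on streptavidin microbeads. FACS then separated cells into low and high (top ~1%) gates by anti-HA (expression) and streptavidin (reagent binding) fluorescence. Genes were colony-PCR amplified, MiSeq 2 × 250 sequenced and CDR-length filtered. A clone's polyreactivity label is that of its gate of origin.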

| Sequence | polyreactivity (PSR sort gate) |
| --- | --- |
| QVQLVESGGGLVQAGGSLRLSCAASGFIFYVNAMGWYREAPGNERQLVAAISLIGGSTYYADSVKGRFTISRDNAKNTVYLQMNSLIPEDTAVYYCAADPFPGVYDDAIIDYDYWGQGTQVTVSS | low polyreactivity |
| QVQLVESGGGLVQAGGSLRLSCAASGFIFYVYAMGWYRQARGKERELVAAISGGGDSTYYADSVKGRFTISRDNAKNTVYLQMNSLKPEHTAVYYCAAEPWANTPGEAGSPFDYWGQGTQVTVSS | low polyreactivity |
| QVQLVESGGGLVQAGGSLRLSCAASGFIFYYNAMGWDRQAPGKERELVAAIDSGGRTNYADSVKGRFTISRDNAKNTVYLQMNSLKPEDTAVYYCATDPYQPYEGDYWGQGTQVTVSS | low polyreactivity |
| QVQLVESGGGLVQAGGSLRLSCAASGFIFYYNAMGWYRQAPGKERELVAAIDSGGRTNYADSVKGRFTISRDNAKNTVYLQMNSLKPEDTAVYYCAADVITYATYGTRKFQRYGYWGQGTQVTVSS | low polyreactivity |
| QVQLVESGGGLVQAGGSLRLSCAASGFIFYYNAMGWYRQAPGKERELVAGISRSAGSTYYADSVKGRFTISRDNAKNTVYLQMNSLKPEDTAVYYCAALYLSYITGTSYYWGQGTQVTVSS | low polyreactivity |
| QVQLVESGGGLVQAGGSLRLSCAASGFIFYYNAMGWYRQAPGKERELVATIRGSGGSTYYADSVKGRFTISRDTAKNTVYLHMNSLKPEDTAVYYCATTIYGLTSRLYYWGQGTQVTVSS | high polyreactivity |
| QVQLVESGGGLVQAGGSLRLSCAASGFIFYYYAMGWYRPAPGKERELVAAISVRGGRTYYADSVKGRFTISRDNAKNTVYLQMNSLKPEDTAVYYCAADLYNRGRGSSQSYRTGYDYWGQGTQVTVSS | high polyreactivity |
| QVQLVESGGGLVQAGGSLRLSCAASGFIFYYYAMGWYRQAPGKERELVAGIDKTGGSTYYADSVKGRFTISRDNAKNPVYLQMNSLKPDDTAVYYCNAPYYRGGKDGYWGQGTQVTVSS | high polyreactivity |
| QVQLVESGGGLVQAGGSLRLSCAASGFIFYYYDMGWYRQAPGKERELVAAISTGGSTYYADSVKGRFTISRDNAKNTVYLQMNSLKPEDTAVYYCAADSYWSPYDYWGQGTQVTVSS | high polyreactivity |
| QVQLVESGGGLVQAGGSLRLSCAASGFIIAPNAMGWYRQAPGKDRELVAAISGGGSTYYADSVKGRFTISRDNAKNTVYLQMNSLKPEDTAVYYCAVAGRRGDEYDYWGQGTQVTVSS | low polyreactivity |
| QVQLVESGGGLVQAGGSLRLSCAASGFIIARNTMGWYRQAPAKERELVAAISSSGGSTYYADSVKGRFTISRDNAKNTFYLQMNCLKPEDTAVYYCNKGYTGLYGYDYWGQGTHVTVSS | high polyreactivity |
| QVQLVESGGGLVQAGGSLRLSCAASGFIIGDYAMGWYRQAPGKERELVAAITISGGGTYYADSVKGRFTISRDNAKNTVYLQMNSLKPEDTAVYYCAAGYYDLNLDTDFGFDYWGQGTQVTVSS | low polyreactivity |
| QVQLVESGGGLVQAGGSLRLSCAASGFIIGLYAMGWYRQAPGKERELVAAISGSGGSTYYADSVKGRFTISRDNAKNTVYLQMNSLKPEDTAVYYCNGAHGVHTYVYRYCYWGQGTQVTVSS | low polyreactivity |
| QVQLVESGGGLVQAGGSLRLSCAASGFIIGSYAMGWYRQAPGKERELVAAISRRTTNTYYADSVKGRFTISRDNAKNTVYLQMNSLKPEDTAVYYCARVTWYESDYWGQGTQVTVSS | high polyreactivity |
| QVQLVESGGGLVQAGGSLRLSCAASGFIIGSYTMGWNRQAPRKERELVASITKRGGSTYYADSVKGRFTISRDNAKNTVYLQMNSLKPEDTEVYYCAATYLFSHRSRYDYWGQGTQVTVSS | high polyreactivity |
| QVQLVESGGGLVQAGGSLRLSCAASGFIIIGYVMGWYRQSPGKERELVAAITSSVGSTYYADSVKGRFTISRDNAKNPVYLQMNSLKPEDTAVYYCAAEYYLLWSGMEYWGEGTQVTVSS | low polyreactivity |
| QVQLVESGGGLVQAGGSLRLSCAASGFIILINVMGWYRQAPGKERELVAVITGGGTTNYADSVKGRFTFSRDNAKNTVYLQMNSLKPEDTAVYYCAVDAGAGDNDYWGQGTQVTVSS | low polyreactivity |
| QVQLVESGGGLVQAGGSLRLSCAASGFIIRKYAMGWYRPAPGKEWELVAAISGRADSTYYADSVKGRFTISRDNAKNTVYLQMNSLKPDDTAVYYCAAYWHSKIGKGYDYWGQGTQVTVSS | high polyreactivity |
| QVQLVESGGGLVQAGGSLRLSCAASGFIISVYAMGWYRQAPGKERELVARIDSGGSTYYADSVKGRFTISRDNAKNTVYLQMNSLKPEDTAVYYCATDEGTVGGQQLRPLMDYWGQGTQVTVSS | low polyreactivity |
| QVQLVESGGGLVQAGGSLRLSCAASGFIITGNAMGWYRKAPGKERELVAAITSGGNTYYADSVKGRFTISRDNAKNTVYLQMNSLKPEDTAVYYCAKYVPHWRILMEYWGQGTQVTVSS | low polyreactivity |
| QVQLVESGGGLVQAGGSLRLSCAASGFIITQSAMGWYRQAPGTERELVAAISGNGGRTYYADSVKGRFTISRDNAKNTVYLQMNSLKPEDTAVYYCAVTRPGRRYPFCYDYWGQGTQVTVSS | low polyreactivity |
| QVQLVESGGGLVQAGGSLRLSCAASGFIIVKYAMGWYRQAPGKERELVAAITRGGRTYYADSVKGRFTISRDNAKNTVYLQMNSLKPEDTAVYYCNKARFYDPWLGKYGYKYDYWGQGTQVTVSS | high polyreactivity |

| Sequence | polyreactivity (PSR sort gate) |
| --- | --- |
| QVQLVESGGGLVQAGGSLRLSCAASGFIIVRYAMGWYRQAPGKERELVAAITRSGGSTYYADSVKGRFTISRDNAKNTVYLQMNSLKPEDTAVYYCNAYRQGFTYARMDYWGQGTQVTVSS | high polyreactivity |
| QVQLVESGGGLVQAGGSLRLSCAASGFIIVRYAMGWYRQAPGKERELVASITKSGGSTYYADSVKGRFTISRDNAKNTVYLQMNSLKPEDTAVYYCAATVVSRTRYYYRGQRYDYWGQGTQVTVSS | high polyreactivity |
| QVQLVESGGGLVQAGGSLRLSCAASGFIIVYYAMGWYRQAPGKERELVAAISRSGGSTYYADSVKGRFTISRDNAKNTVYLQMNSLKPEDTAVYYCNAVNVLAPSRGRRYDYWGEGTQVTVSS | high polyreactivity |
| QVQLVESGGGLVQAGGSLRLSCAASGFIIYGYVMGWYRQAPGKERELVAAINSSSGRTYYADSVKGRFTISRDNAKNTVYLQMKSLKPEDTAVYYCAAYYYGSYDGTPYDYWGQGTQVTVSS | low polyreactivity |
| QVQLVESGGGLVQAGGSLRLSCAASGFIIYKYAMGWYRQAPGKERELVAAISWSGGSTYYADSVKGRFTISRDNAKNTVYFQMNSLKPEDTAVYYCAARQWSQGWYDYWGQGTQVTVSS | high polyreactivity |
| QVQLVESGGGLVQAGGSLRLSCAASGFILARYAMGWYRQAPGKERELVAVISSGGSSTFYADSVKGRFTISRDNAKNTVYLQMNSLKPEDTAVYYCAARYKSSKKVGFDYWGQGTQVTVSS | high polyreactivity |
| QVQLVESGGGLVQAGGSLRLSCAASGFILDNYAMGWYRQAPGKERELVAAISGSGGSTFYADSVKGRFTISRDNAKNTVYLQMNSLKSEDTAVYYCNRDRLLRQYDYWGQGTQVTVSS | high polyreactivity |
| QVQLVESGGGLVQAGGSLRLSCAASGFILDTYGMGWYRQAPGKERELVAAISQSDVSTYYADSVKGRFTISRYNAKNTVYLQMNSLKPEDTAVYYCAADRAGLRWFWQVLYDYWGQGTQVTVSS | low polyreactivity |
| QVQLVESGGGLVQAGGSLRLSCAASGFILGLNAMGWYRQAPGKEREFVADISWSGDSTYYADSVKGRFTISRDNAKNTVYLQMNSLKPEDTAVYYCAADPYYNWCYYYWGQGTQVTVSS | low polyreactivity |
| QVQLVESGGGLVQAGGSLRLSCAASGFILGQYAMGWYRQAPGKERELVAAISGSSSTTYADCVKGRFTISRDNAKNTVYLQMNSLKPEDTAVYYCAAYYWYVTYFRREIAYEYWGQGTQVTVSS | low polyreactivity |
| QVQLVESGGGLVQAGGSLRLSCAASGFILGWYAMGWYRQAPGKERELVADISASGTRTYYADSVKGRFTISRDNAKNTVYLQMNSLKPEDTAVYYCNVYTKFVYAYDYWGQGTQVTLSS | high polyreactivity |
| QVQLVESGGGLVQAGGSLRLSCAASGFILGYNAMGWYRQAPGKERELVADITFSGGGTNYADSVKGRFTISRDNAKNTVYLQMNSLKPEDTAVYYCNAAAFSQLRVRYDYWGQGTQVTVSS | low polyreactivity |
| QVQLVESGGGLVQAGGSLRLSCAASGFILKYNAMGWYRQAPGKERELVAAISSNGGRTYYADSVKVRFTISRDNAKNTVYLQMKSLKPEDTAVDYCAAGRLQPVLGGYWGQGSQVTVSS | low polyreactivity |
| QVQLVESGGGLVQAGGSLRLSCAASGFILKYYAMGWYRQAHGKERELVAAITVSGGSTYYADSVKGRFTISRDNAKNTFYLQMNSLKPEDTAVYYCNADYPRGGAGLLDYWGQGTQVTVSS | low polyreactivity |
| QVQLVESGGGLVQAGGSLRLSCAASGFILPHNAMGWYRQAPGKERELVAAISGSGGSTYYADSVKGRFTISRDNAKNTVYLQMNSLKPEDTAFYYCNADVWVYPYDYWGQGTQVTVSS | low polyreactivity |
| QVQLVESGGGLVQAGGSLRLSCAASGFILRYYAMGWYRPAPGNERELVAAISSGGGTYYADSVKGRFTISRDNAKNTVYLQMNSLKPEDTAVYYCNKASTSYYRFNYWGQGTQVTVSS | high polyreactivity |
| QVQLVESGGGLVQAGGSLRLSCAASGFILSNYAMGWYRQAPGKERELVAAIRWSGGSTYYADSVKGRFTISRDYAKNTVYLQMNSLKPEDTAVYYCNKVRPFSWYGLDYWGQGTQVTVSS | high polyreactivity |
| QVQLVESGGGLVQAGGSLRLSCAASGFILSPNTMGWYRPAPGKERELVAAISTDVSTYADSVKGRFTISRDNAKNTVYFQMNSLKPEDTAVYYCNADDFGYASYEYWGQGTQVTVSS | low polyreactivity |
| QVQLVESGGGLVQAGGSLRLSCAASGFILYDYAMGWYRQAPGKEREFVAAISWSGGRTYYADSVKGRFTISRDNAKNTVYLLLNSLNPEASAVYYCAVDAYRYWWTTYVSDFDYWGQGTQLTVSS | high polyreactivity |
| QVQLVESGGGLVQAGGSLRLSCAASGFILYSYAMGWSRQAPGKEREFVSVISRGGGRTYYADSVKGRFTISRDNAKNTVYLQMNSLKPEDTAVYYCAAGSRSPHWYTRELDYWGQGTQVTVSS | low polyreactivity |
| QVQLVESGGGLVQAGGSLRLSCAASGFILYYYAMGWSRQAPGKERELVAAISWSGDSTYYADSVKGRFTISRDNAKNTVYLQMNSLKPEDTAVYYCAATWQLTHRYYWGQGTQVTVSS | low polyreactivity |
